Measured values: patent publication US20220403041A1 (Sanofi, published 2022)

What was measured:
soluble CD73 dimer [1] = biological target: T1, soluble CD73 dimer (human, UniProt P21589 27-549, limits assumed); assay: SPR, antibody captured on Protein A chip, CD73 in flow; biphasic fit, component of abundance 43%
T1 construct: CD73 in the flow (SPR) or in solution (BLI binning); also called soluble human CD73
T1 sequence: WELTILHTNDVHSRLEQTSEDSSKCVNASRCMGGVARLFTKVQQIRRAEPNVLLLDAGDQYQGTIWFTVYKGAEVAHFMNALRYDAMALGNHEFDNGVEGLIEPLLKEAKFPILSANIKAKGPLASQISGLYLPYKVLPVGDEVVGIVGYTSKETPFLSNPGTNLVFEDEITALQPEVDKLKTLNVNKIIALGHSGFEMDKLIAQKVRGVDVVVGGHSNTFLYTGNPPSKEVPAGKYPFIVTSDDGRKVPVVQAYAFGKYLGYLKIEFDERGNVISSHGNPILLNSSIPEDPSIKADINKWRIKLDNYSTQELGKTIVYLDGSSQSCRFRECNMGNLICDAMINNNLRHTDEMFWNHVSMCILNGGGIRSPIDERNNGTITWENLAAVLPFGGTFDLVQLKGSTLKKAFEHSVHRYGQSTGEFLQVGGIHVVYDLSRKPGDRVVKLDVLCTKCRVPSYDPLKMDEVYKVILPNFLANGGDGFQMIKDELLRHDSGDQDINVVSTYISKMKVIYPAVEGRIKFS

soluble CD73 dimer [2] = biological target: T1, soluble CD73 dimer; assay: SPR, antibody captured on Protein A chip, CD73 in flow; biphasic fit, component of abundance 91%
[3] = biological target: T2, human CD73 on COR-L23 lung carcinoma cells (human) (UniProt P21589)
T2 sequence: T1 sequence

[4] = biological target: T2, human CD73 on COR-L23 lung carcinoma cells (human); assay: cell-based or functional assay
soluble CD73 dimer [5] = biological target: T1, soluble CD73 dimer; assay: SPR dissociation kinetics
soluble CD73 dimer [6] = biological target: T1, soluble CD73 dimer; assay: SPR, antibody captured on Protein A chip, CD73 in flow; Langmuir 1:1 fit
soluble CD73 dimer [7] = biological target: T1, soluble CD73 dimer; assay: SPR, antibody captured on chip, CD73 in flow; biphasic fit, share by T0 intercept of the component with kd 4.06E-03 1/s
soluble CD73 dimer [8] = biological target: T1, soluble CD73 dimer; assay: SPR, antibody captured on Protein A chip, CD73 in flow; Langmuir ka with major component kd
soluble CD73 dimer [9] = biological target: T1, soluble CD73 dimer; assay: SPR, antibody captured on chip, CD73 in flow; biphasic fit, share by T0 intercept of the component with kd 1.28E-04 1/s
soluble CD73 dimer [10] = biological target: T1, soluble CD73 dimer; assay: SPR, antibody captured on Protein A chip, CD73 in flow; biphasic fit, component of abundance 57%
soluble CD73 dimer [11] = biological target: T1, soluble CD73 dimer; assay: SPR, antibody captured on chip, CD73 in flow; biphasic fit, share after 300 s binding phase of the component with ka 1.58E+05 1/Ms
soluble CD73 dimer [12] = biological target: T1, soluble CD73 dimer; assay: SPR, antibody captured on Protein A chip, CD73 in flow; biphasic fit, component of abundance 9%
soluble CD73 dimer [13] = biological target: T1, soluble CD73 dimer; assay: SPR, antibody captured on chip, CD73 in flow; biphasic fit, share after 300 s binding phase of the component with ka 8.50E+05 1/Ms
soluble CD73 dimer [14] = biological target: T1, soluble CD73 dimer; assay: SPR, antibody captured on chip, CD73 in flow; biphasic fit, share after 300 s binding phase of the component with ka 1.19E+06 1/Ms
soluble CD73 dimer [15] = biological target: T1, soluble CD73 dimer; assay: SPR, antibody captured on chip, CD73 in flow; biphasic fit, share after 300 s binding phase of the component with ka 1.16E+05 1/Ms
soluble CD73 dimer [16] = biological target: T1, soluble CD73 dimer; assay: SPR, antibody captured on chip, CD73 in flow; biphasic fit, share by T0 intercept of the component with kd 6.00E-03 1/s
soluble CD73 dimer [17] = biological target: T1, soluble CD73 dimer; assay: SPR, antibody captured on chip, CD73 in flow; biphasic fit, share by T0 intercept of the component with kd 7.80E-05 1/s
soluble CD73 dimer [18] = biological target: T1, soluble CD73 dimer; assay: SPR, antibody captured on Protein A chip, CD73 in flow; biphasic fit, component of abundance 55%
soluble CD73 dimer [19] = biological target: T1, soluble CD73 dimer; assay: SPR, antibody captured on Protein A chip, CD73 in flow; biphasic fit, component of abundance 45%
soluble CD73 dimer [20] = biological target: T1, soluble CD73 dimer; assay: SPR, antibody captured on chip, CD73 in flow; biphasic fit, share after 300 s binding phase of the component with ka 2.81E+05 1/Ms
soluble CD73 dimer [21] = biological target: T1, soluble CD73 dimer; assay: SPR, antibody captured on Protein A chip, CD73 in flow; biphasic fit, component of abundance 85%
soluble CD73 dimer [22] = biological target: T1, soluble CD73 dimer; assay: SPR, antibody captured on chip, CD73 in flow; biphasic fit, share by T0 intercept of the component with kd 2.70E-05 1/s
soluble CD73 dimer [23] = biological target: T1, soluble CD73 dimer; assay: SPR, antibody captured on Protein A chip, CD73 in flow; biphasic fit, component of abundance 15%
soluble CD73 dimer [24] = biological target: T1, soluble CD73 dimer; assay: SPR; KD from Langmuir ka and kd of the principal dissociation component
soluble CD73 dimer [25] = biological target: T1, soluble CD73 dimer; assay: SPR, antibody captured on Protein A chip, CD73 in flow; biphasic fit, component of abundance 35%
soluble CD73 dimer [26] = biological target: T1, soluble CD73 dimer; assay: SPR, antibody captured on Protein A chip, CD73 in flow; biphasic fit, component of abundance 65%
soluble CD73 dimer [27] = biological target: T1, soluble CD73 dimer; assay: SPR, antibody captured on chip, CD73 in flow; biphasic fit, share after 300 s binding phase of the component with ka 1.38E+06 1/Ms
soluble CD73 dimer [28] = biological target: T1, soluble CD73 dimer; assay: SPR, antibody captured on chip, CD73 in flow; biphasic fit, share by T0 intercept of the component with kd 2.70E-03 1/s
soluble CD73 dimer [29] = biological target: T1, soluble CD73 dimer; assay: SPR, antibody on the solid support, soluble CD73 dimer in solution

B1: E3.2/TB19 (bispecific antibody, part only; not given: E3.2 arm; constant regions, V domains shown, part only)
VH: QEQLQESGPGLVKPSETLSLTCTVSGGSIRNNYYNWIRQPAGKGLEWIGRIYISGTTNSNPSLKSRVTMSIDTSKNQFSLKLSSVTAADTAIYYCAREHYVSGTSLDNWGQGTLVTVSS
VL: EIVMTQSPTTLSLSPGERATLSCRASQSVNTNYFSWYQQKPGLTPRLLIYGTSTRATGIPARFSGSGSGTDFTLTISSLQPEDFGIYYCQQDYNLPYTFGQGTYLEIK
Soluble CD73 dimer [1]
  kon: 850000 M⁻¹ s⁻¹
Soluble CD73 dimer [2]
  koff: 0.000128 s⁻¹
[3]
  % inhibition of CD73 activity at 1 µg/ml antibody (COR-L23 cells, 4 h, LC/MS); cell E3.2 x TB19: 95%
[4]
  EC50 (nM) of inhibition of CD73 activity (adenosine by LC/MS): 0.443 nM
  Max Inhib. (projected maximal inhibition at saturating antibody): 97%
  inhibition of CD73 enzymatic activity on COR-L23 cells at 1 µg/mL: > 95%
Soluble CD73 dimer [5]
  fold more stable (kd of the principal component) than with either monovalent parental: 5.4 fold
Soluble CD73 dimer [6]
  koff: 0.000164 s⁻¹
  kon: 364000 M⁻¹ s⁻¹
Soluble CD73 dimer [7]
  abundance of dissociation component (biphasic fit): 9%
Soluble CD73 dimer [8]
  Kd: 0.352 nM
Soluble CD73 dimer [9]
  abundance of dissociation component (biphasic fit): 91%
Soluble CD73 dimer [10]
  kon: 158000 M⁻¹ s⁻¹
Soluble CD73 dimer [11]
  abundance of association component (biphasic fit): 57%
Soluble CD73 dimer [12]
  koff: 0.00406 s⁻¹
Soluble CD73 dimer [13]
  abundance of association component (biphasic fit): 43%

B2: TB19/TC29 (bispecific antibody, part only; not given: TC29 arm; constant regions, V domains shown, part only)
VH: B1 VH
VL: B1 VL
Soluble CD73 dimer [14]
  abundance of association component (biphasic fit): 55%
Soluble CD73 dimer [2]
  koff: 7.8e-05 s⁻¹
[3]
  % inhibition of CD73 activity at 1 µg/ml antibody (COR-L23 cells, 4 h, LC/MS); cell TB19 x TC29: 95%
Soluble CD73 dimer [15]
  abundance of association component (biphasic fit): 45%
[4]
  EC50 (nM) of inhibition of CD73 activity (adenosine by LC/MS): 0.264 nM
  EC50, fold lower than that of the antibody mixture: 50 fold
  Max Inhib. (projected maximal inhibition at saturating antibody): 95%
  inhibition of CD73 enzymatic activity on COR-L23 cells at 1 µg/mL: > 95%
Soluble CD73 dimer [16]
  abundance of dissociation component (biphasic fit): 9%
Soluble CD73 dimer [17]
  abundance of dissociation component (biphasic fit): 91%
Soluble CD73 dimer [6]
  koff: 8.96e-05 s⁻¹
  kon: 685000 M⁻¹ s⁻¹
Soluble CD73 dimer [18]
  kon: 1.19e+06 M⁻¹ s⁻¹
Soluble CD73 dimer [8]
  Kd: 0.114 nM
Soluble CD73 dimer [12]
  koff: 0.006 s⁻¹
Soluble CD73 dimer [19]
  kon: 116000 M⁻¹ s⁻¹

B3: TB19/H19 (bispecific antibody, part only; not given: H19 arm; constant regions, V domains shown, part only)
VH: B1 VH
VL: B1 VL
Soluble CD73 dimer [20]
  abundance of association component (biphasic fit): 65%
Soluble CD73 dimer [21]
  koff: 2.7e-05 s⁻¹
Soluble CD73 dimer [22]
  abundance of dissociation component (biphasic fit): 85%
[3]
  % inhibition of CD73 activity at 1 µg/ml antibody (COR-L23 cells, 4 h, LC/MS); cell TB19 x H19: 97%
Soluble CD73 dimer [23]
  koff: 0.0027 s⁻¹
[4]
  EC50 (nM) of inhibition of CD73 activity (adenosine by LC/MS): 0.382 nM
  Max Inhib. (projected maximal inhibition at saturating antibody): 98%
  inhibition of CD73 enzymatic activity on COR-L23 cells at 1 µg/mL: > 95%
Soluble CD73 dimer [5]
  fold more stable (kd of the principal component) than with either monovalent parental: 26 fold
Soluble CD73 dimer [24]
  fold increase of apparent affinity (KD) over either monovalent parental antibody: 69 fold
Soluble CD73 dimer [6]
  koff: 0.000112 s⁻¹
  kon: 449000 M⁻¹ s⁻¹
Soluble CD73 dimer [25]
  kon: 1.38e+06 M⁻¹ s⁻¹
Soluble CD73 dimer [26]
  kon: 281000 M⁻¹ s⁻¹
Soluble CD73 dimer [8]
  Kd: 0.0602 nM
Soluble CD73 dimer [27]
  abundance of association component (biphasic fit): 35%
Soluble CD73 dimer [28]
  abundance of dissociation component (biphasic fit): 15%
Soluble CD73 dimer [29]
  fold lower KD than either parental antibody: 15 fold

B4: TB19/TA10 (bispecific antibody, part only; not given: TA10 arm, part only)
TB19 arm heavy chain: B1 VH
TB19 arm light chain: EIVMTQSPTTLSLSPGERATLSCRASQSVNTNYFSWYQQKPGLTPRLLIYGTSTRATGIPARFSGSGSGTDFTLTISSLQPEDFGIYYCQQDYNLPYTFGQGTYLEIKRTVAAPSVFIFPPSDEQLKSGTASVVCLLNNFYPREAKVQWKVDNALQSGNSQESVTEQDSKDSTYSLSSTLTLSKADYEKHKVYACEVTHQGLSSPVTKSFNRGEC
[3]
  % inhibition of CD73 activity at 1 µg/ml antibody (COR-L23 cells, 4 h, LC/MS); cell TB19 x TA10: 80%

B5: TB19/C16 (bispecific antibody, part only; not given: C16 arm, part only)
TB19 arm heavy chain: B1 VH
TB19 arm light chain: B4 TB19 arm light chain
[3]
  % inhibition of CD73 activity at 1 µg/ml antibody (COR-L23 cells, 4 h, LC/MS); cell TB19 x C16: 85%

B6: TB19/E23 (bispecific antibody, part only; not given: E23 arm, part only)
TB19 arm heavy chain: B1 VH
TB19 arm light chain: B4 TB19 arm light chain
[3]
  % inhibition of CD73 activity at 1 µg/ml antibody (COR-L23 cells, 4 h, LC/MS); cell TB19 x E23: 50%

B7: TB19/F1.2 (bispecific antibody, part only; not given: F1.2 arm, part only)
TB19 arm heavy chain: B1 VH
TB19 arm light chain: B4 TB19 arm light chain
[3]
  % inhibition of CD73 activity at 1 µg/ml antibody (COR-L23 cells, 4 h, LC/MS); cell TB19 x F1.2: 47%

B8: TB19/TA9 (bispecific antibody, part only; not given: TA9 arm, part only)
TB19 arm heavy chain: B1 VH
TB19 arm light chain: B4 TB19 arm light chain
[3]
  % inhibition of CD73 activity at 1 µg/ml antibody (COR-L23 cells, 4 h, LC/MS); cell TB19 x TA9: 70%

B9: TB19/AS30 (bispecific antibody, part only; not given: AS30 arm, constant regions, V domains shown, not shown: another chain or arm of the molecule; a dimerising Fc or GST; small tags and cut ends)
VH: B1 VH
VL: B1 VL
[3]
  % inhibition of CD73 activity at 1 µg/ml antibody (COR-L23 cells, 4 h, LC/MS); cell TB19 x AS30 (monovalent): -1%
Soluble CD73 dimer [6]
  koff: 0.00069 s⁻¹
  kon: 165000 M⁻¹ s⁻¹
Soluble CD73 dimer [8]
  Kd: 4.18 nM
